Laboratory results from US20100135948A1 (University of Pennsylvania, published 2010).
Where no end group is shown, it is not given here.

T1: desmoglein 3 (human, UniProt P32926 50-615, limits assumed)
T1 construct: Antigen on commercial ELISA plates; also called Dsg3; Dsg 3
T1 sequence (looked up): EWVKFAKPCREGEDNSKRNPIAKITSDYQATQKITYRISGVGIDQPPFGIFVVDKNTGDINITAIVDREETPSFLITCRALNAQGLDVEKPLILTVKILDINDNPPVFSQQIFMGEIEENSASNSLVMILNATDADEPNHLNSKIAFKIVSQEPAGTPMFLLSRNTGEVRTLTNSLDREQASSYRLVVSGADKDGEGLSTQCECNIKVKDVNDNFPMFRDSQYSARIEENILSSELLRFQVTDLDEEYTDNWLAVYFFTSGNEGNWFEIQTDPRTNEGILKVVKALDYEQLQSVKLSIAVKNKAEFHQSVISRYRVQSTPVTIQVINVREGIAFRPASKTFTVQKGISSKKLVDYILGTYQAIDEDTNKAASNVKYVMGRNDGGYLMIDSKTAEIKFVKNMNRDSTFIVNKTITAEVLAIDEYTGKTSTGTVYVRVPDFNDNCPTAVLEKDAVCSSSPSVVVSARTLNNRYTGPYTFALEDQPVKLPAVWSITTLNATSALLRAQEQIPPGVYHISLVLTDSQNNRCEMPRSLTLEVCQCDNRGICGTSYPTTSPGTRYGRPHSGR


Key:
desmoglein 3 = target: T1, desmoglein 3; experiment: ELISA
(D31)2/28 scFv = target: T2, (D31)2/28 scFv; experiment: ELISA inhibition, monoclonal peptide phage preincubated with PV scFv, Dsg plate (Dsg3 by paragraph 281)
T2 construct: Human anti-Dsg3/Dsg1 scFv from the PV(1) phage library (pComb3X, nickel-purified, HA-detected); also called pathogenic PV mAb
Protocol: (§1) For ELISA inhibition assays, anti-idiotypic reagents were pre-incubated with PV mAbs for one hour at 37° C. prior to incubation on Dsg3 or Dsg1 ELISA plates (Rhigene/MBL), which were otherwise processed according to manufacturer's instructions. Anti-idiotypic antisera were effective and dose responsive at dilutions ranging from 1:3 to 1:6400, while peptide phage were used in inhibition assays from 10⁸ to 10¹⁰ pfu/well. PV scFv binding, detected with HRP-conjugated anti-HA secondary antibody (Roche), was titrated to a final OD450 reading of 0.4-1.0, which was within the linear range of detection.
(§2) Select peptide phage were tested for their ability to inhibit binding of PV mAbs to Dsg substrates by ELISA (Table 4).

(D31)2/29 scFv = target: T3, (D31)2/29 scFv; experiment: as above
T3 construct: also called pathogenic PV mAb
Protocol: as §1, §2

(D31)12b/6 scFv = target: T4, (D31)12b/6 scFv; experiment: as above
T4 construct: also called nonpathogenic PV mAb
Protocol: as §1, §2

(D3)3c/9 scFv = target: T5, (D3)3c/9 scFv; experiment: as above
T5 construct: also called pathogenic PV mAb
Protocol: as §1, §2

(D3)1d/2c scFv = target: T6, (D3)1d/2c scFv; experiment: as above
T6 construct: also called nonpathogenic PV mAb
Protocol: as §1, §2

Binder | binding result (desmoglein 3) | percent inhibition ((D31)2/28 scFv) [%] | percent inhibition ((D31)2/29 scFv) [%] | percent inhibition ((D31)12b/6 scFv) [%] | percent inhibition ((D3)3c/9 scFv) [%] | percent inhibition ((D3)1d/2c scFv) [%]
YSNKTPHLQWRL (peptide, not shown: large carriers, also: displayed on phage, fused to pIII coat protein, linker not given here, Monoclonal phage clone; tested as phage particle) [P7 peptide phage] | no binding | 12 | 83 | 8 | 6 | 9
TTLTLRH (peptide, not shown: large carriers, also: displayed on phage, fused to pIII, Monoclonal phage clone; tested as phage particle) [P14 peptide phage] | no binding | 15 | 16 | 13 | 5 | 8
QHNKSPNLYWRS (peptide, not shown: large carriers, also: displayed on phage, fused to pIII, Monoclonal phage clone; tested as phage particle) [P10 peptide phage] | no binding | – | – | – | – | –
DLNYFTLSSKRE (peptide, not shown: large carriers, also: displayed on phage, fused to pIII coat protein, linker not given here, Control phage clone; tested as phage particle; also called control phage) [control peptide phage displaying a non-consensus sequence] | – | 2 | 15 | 11 | 8 | 8
AKNPPTLIWKHT (peptide, not shown: large carriers, also: displayed on phage, fused to pIII coat protein, linker not given here, Monoclonal phage clone; tested as phage particle) [P9 peptide phage] | no binding | – | – | – | – | –
WANKQPTIIWRS (peptide, not shown: large carriers, also: displayed on phage, fused to pIII coat protein, linker not given here, Monoclonal phage clone; tested as phage particle) [P5 peptide phage] | no binding | – | – | – | – | –
TDKTPFLLWRVH (peptide, not shown: large carriers, also: displayed on phage, fused to pIII coat protein, linker not given here, Monoclonal phage clone; tested as phage particle) [P8 peptide phage] | no binding | – | – | – | – | –
ANKTSPFLMWRL (peptide, not shown: large carriers, also: displayed on phage, fused to pIII, Monoclonal phage clone from round 3 of screening with (D31)2/29 IgG; tested as phage particle) [P4 peptide phage] | no binding | 9 | 78 | 10 | 7 | 14
